# From publication PMC3729527, “Redox-sensitive DNA binding by homodimeric Methanosarcina acetivorans MsvR is modulated by cysteine residues”
# Positions count from the first letter of the chain named.
# T1: MaMsvR (Methanosarcina acetivorans C2A) (UniProt Q8TQT2)
# T1 sequence: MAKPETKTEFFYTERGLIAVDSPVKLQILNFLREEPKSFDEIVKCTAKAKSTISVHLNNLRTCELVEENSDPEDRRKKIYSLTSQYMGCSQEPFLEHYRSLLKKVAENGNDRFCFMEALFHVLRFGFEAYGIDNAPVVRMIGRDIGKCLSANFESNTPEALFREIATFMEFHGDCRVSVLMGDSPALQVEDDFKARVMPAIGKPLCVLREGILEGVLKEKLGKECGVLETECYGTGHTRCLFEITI
# T2: MaMsvR C206A C206A (Methanosarcina acetivorans C2A), ORF:da4acb06
# T2 sequence: T1 sequence with C206A
# T3: MaMsvR C240A C240A (Methanosarcina acetivorans C2A), ORF:da4acb06
# T3 sequence: T1 sequence with C240A
# T4: MaMsvR C232A C232A (Methanosarcina acetivorans C2A), ORF:da4acb06
# T4 sequence: T1 sequence with C232A
# T5: MaMsvR (Methanosarcina acetivorans C2A, UniProt Q8TQT2 1-246)
# T5 sequence: T1 sequence
# B1: Ma PmsvR flanks replaced (dsDNA)
# DNA 1: GAGGGAATGAAATCCTCTTCGTAGTCACGCGAAAATGGACAAGTCTGATT
# DNA 2: AATCAGACTTGTCCATTTTCGCGTGACTACGAAGAGGATTTCATTCCCTC
# B2: Ma PmsvR 1 bp deletion between boxes (dsDNA)
# DNA 1: TATTTCAAACATGATTATTCGTAGCACGCGAACGTTTTATATATTCAAA
# DNA 2: TTTGAATATATAAAACGTTCGCGTGCTACGAATAATCATGTTTGAAATA
# B3: Ma PmsvR 50 bp box A mutant (dsDNA)
# DNA 1: TATTTCAAACATGATTAGGGGTAGTCACGCGAACGTTTTATATATTCAAA
# DNA 2: TTTGAATATATAAAACGTTCGCGTGACTACCCCTAATCATGTTTGAAATA
# B4: Ma PmsvR 50 bp box B mutant (dsDNA)
# DNA 1: B3 DNA 1 with G18T, G19T, G20C, C30G, A32G, A33G
# DNA 2: B3 DNA 2 with T18C, T19C, G21C, C31G, C32A, C33A
# B5: Ma PmsvR 1 bp insertion between boxes (dsDNA)
# DNA 1: TATTTCAAACATGATTATTCGTAGTTCACGCGAACGTTTTATATATTCAAA
# DNA 2: TTTGAATATATAAAACGTTCGCGTGAACTACGAATAATCATGTTTGAAATA
# Columns and labels:
# [1] = target: T1, MaMsvR (Methanosarcina acetivorans C2A); test: EMSA; settings: EMSA at room temperature, 10 nM DNA and 200 nM MsvR (50 nM DNA and 1 uM protein for 50 bp oligos), with or without 5 mM DTT; binding buffer as in cited ref 9 …
# [2] = target: Methanosarcina acetivorans MsvR (methanogen specific V4R domain regulator), N-terminal Strep-tag (Methanosarcina acetivorans C2A); test: SDS-PAGE without boiling, with immunoblot (Strep-tag antibody); 1 pmol protein in Laemmli sample buffer without or with 5 mM DTT, room temperature five minutes, not boiled; reduced and boiled sample as control; oligomers that withstand SDS, likely stabilised by disulfide bonds
# [3] = target: Methanosarcina acetivorans MsvR (methanogen specific V4R domain regulator), N-terminal Strep-tag (Methanosarcina acetivorans C2A); test: SEC; Superdex 200 HiLoad 16/600; 20 mM Tris pH 8, 10 mM MgCl2, 200 mM KCl; 0.5 ml/min; non-reduced MaMsvR (0.65 mg loaded) and reduced MaMsvR (0.84 mg, 2 mM beta-ME in the elution buffer); calibrated with ferritin, conalbumin, carbonic anhydrase, ribonuclease A
# [4] = tested on: T2, MaMsvR C206A C206A (Methanosarcina acetivorans C2A), ORF:da4acb06; test: EMSA; settings: EMSA at room temperature, 10 nM DNA and 200 nM MsvR (50 nM DNA and 1 uM protein for 50 bp oligos), with or without 5 mM DTT; binding buffer as in cited ref 9 …
# [5] = tested on: T3, MaMsvR C240A C240A (Methanosarcina acetivorans C2A), ORF:da4acb06; test: EMSA; settings: EMSA at room temperature, 10 nM DNA and 200 nM MsvR (50 nM DNA and 1 uM protein for 50 bp oligos), with or without 5 mM DTT; binding buffer as in cited ref 9 …
# [6] = tested on: T4, MaMsvR C232A C232A (Methanosarcina acetivorans C2A), ORF:da4acb06; test: EMSA; settings: EMSA at room temperature, 10 nM DNA and 200 nM MsvR (50 nM DNA and 1 uM protein for 50 bp oligos), with or without 5 mM DTT; binding buffer as in cited ref 9 …
# MaMsvR [7] = target: T5, MaMsvR; test: EMSA; reducing; EMSA at room temperature, 10 nM DNA and 200 nM MsvR (50 nM DNA and 1 uM protein for 50 bp oligos), with or without 5 mM DTT; binding buffer as in cited ref 9; protein stock in 20 mM Tris pH 8, 10 mM MgCl2, 200 mM KCl, glycerol; settings: protein: recombinant; tags: N-terminal Strep-tag; chain copies: 2; blunt
# MaMsvR [8] = target: T5, MaMsvR; test: EMSA; 5 mM DTT; 1 uM protein, 50 nM DNA; EMSA at room temperature, 10 nM DNA and 200 nM MsvR (50 nM DNA and 1 uM protein for 50 bp oligos), with or without 5 mM DTT; binding buffer as in cited ref 9; protein stock in 20 mM Tris pH 8, 10 mM MgCl2, 200 mM KCl, glycerol; settings: protein: recombinant; tags: N-terminal Strep-tag; chain copies: 2; blunt
molecule,measurement,setting,value
AAAGTAAGAAATTCTCTCTATATGTATGGGTTTATGATATCTCAGACCTGAAAATATGCGGATAAAATTCGGATAAAACAGGATTTCCTGATTTGGAGGGAAAGTAATGAAGTGTTACGAATGTGCCAGAGAGGGCAAAGATACGGATGCTGTGGGAATTTGTATCGTATGTGGAAGAGGAGTTTGCAAAGAACACCTTATCCATGAGGAAACACCTGCGTGGGAAGGCGACTATCCTAT (double strand) [Ma P3734],binding,[1],no binding
AGATCCCCCAGCGTCTCCAGAACTTGCGGAGTGAATCCCATTTTTTCTCCCATACTCTCCAGTATCTCTTCATGCTCTGTCATTTTTCCAGTCTCCTTACTCCGATAACTACCAGCTGTTGATATTTATATTGGTTATTTATATTTATTATTAATTAATATTTCTCAAATCTGTGTTCAGGCCTTTTACTTCCTCATTCCTGTCCAAAGGCCCTTTATTAAAGTCCGCATCCTTTGTTATGGGCTGCACA (double strand) [Ma P3736],binding,[1],no binding
AGGCTTTACAAAGTAAATAAAGGGGAGAAAAAGGGTTAAAACCTGAATAAGAAGTAAAGAAAACTCCGATATAAGCAAAAGTATTTATAGAATCCGATTACAAAATCAGAGGTTAGAAGGAATTTATATTAACAAAAAGAAGCTTGGAGGATAATATGGCAAAAGTTATACCATTTGCACCAATCGAACGCCTGATAAGGACGGCTGGTGCCCACAGAGTAAGTGAGA (double strand) [Ma PhmaA],binding,[1],no binding
CCGAAAACATTCCTGGCAATCTCCGGGATATTATATATTTCCATACTTTTCCTCCAACTCTCTTCTGAATCATTTACTCTCAAAATAAAATGTACCAAAATACGGTACACAGAAATCTTTAACTGTTCCCCACAAGCTCAAAACAGTATTATGGTGTAGCTATGTTAATTCGATATATTTATTATATTGATTAAATATTTTTGATAAGAACCTCTTTCTATTTTTACCTGTTCGTTCTGTCAGA (double strand) [Ma P3381],binding,[1],no binding
GCAGATCTCGCAGCGGTACTTTTCTCCTTTTCTGGATACAGCCATAGCTACTTCACCTCCTTGCTTCTGAATTTAAATACCTCAAAACTTTCAAGCGGGCTTTCCCCTTCCCTGTAATCCCGAAATTACTCCGGGTTTCACCAACACTCATACATGTTAACCATTCTTTGTATATAATTGTAAGGACTTTTTAAAAAGTAACATAAATTTTTTCCTTCTATTCGGGTATGTCTTA (double strand) [Ma P4664],binding,[1],no binding
"Methanosarcina acetivorans MsvR (methanogen specific V4R domain regulator), N-terminal Strep-tag (natural protein)",stoichiometry N,[2],2
same,stoichiometry N,[3],2
TCAGCTTTTCTTACGTTTGACCGTTATAGGAATAATTTCGGCCTTCAACTCTGCAATGGCTACACCCAGGGGGTCCAGCCGCCCGTCATCATCAACCAGGACAGGAGCCCCCATTGCTATCTGCAATGCTCTTGCACCTACAATTCGTGCACGCTCGAACCGGGTATACTTTT (double strand) [Ma rpoK],binding,[1],no binding
TTACTTTGCCGTTTCCCCCCATTTTCTTTATATCTTTTTATATCTGTATTATTATATTTCAAACATGATTATTCGTAGTCACGCGAACGTTTTATATATTCAAAACGCAACTTATCTAAAGATATTATGGCAAAACCTGAGACCAAAACTGAATTCTTTTATACCGAAAGAGGGCTCATAGCCGTAGACAGCCCTGTTAAACTCCAGATCCTGAATTTTCTCAGGG (double strand) [Ma PmsvR (PCR)],binding,[4],binds
same,binding,[5],binds
same,binding,[6],binds
same,binding,[1],binds
B1,binding result,MaMsvR [7],no binding
B2,binding result,MaMsvR [7],binds
B3,binding result,MaMsvR [8],no binding
B4,binding result,MaMsvR [8],no binding
B5,binding result,MaMsvR [7],binds
